Laboratory results published in patent publication US20190321455A1 (KOREA RESEARCH INSTITUTE OF BIOSCIENCE AND BIOTECHNOLOGY, published 2019).

Assays:
[1] = molecular target: T1, Strep-EPRS (Strep-tagged full-length glutamyl-prolyl-tRNA synthetase, wild type) (Homo sapiens (Human), UniProt P07814 1-1512); experiment: Strep-EPRS complexes from PR8-infected 293T cells, mass spectrometry
T1 construct: Expressed in HEK293T cells and pulled down with Strep-Tactin; Mass spectrometry found phospho-Ser886, and phospho-Ser990 after PR8 infection; also called Strep-EPRS WT; not shown: Strep tag

[2] = molecular target: T2, EPRS, endogenous protein of U937 cells (human, UniProt P07814 1-1512, phospho-Ser990 induced by PR8 infection; phospho-Ser886 also detected); experiment: endogenous co-IP with anti-EPRS antibody from PR8-infected U937 cells, anti-GAPDH immunoblot
T2 construct: Endogenous protein immunoprecipitated with anti-EPRS antibody; also called glutamyl-prolyl-tRNA synthetase

[3] = molecular target: T3, Strep-tagged EPRS mono-phosphomimetic S990D (Homo sapiens (Human), UniProt P07814 1-1512); experiment: Strep precipitation from 293T cells, immunoblot
T3 construct: Expressed in 293T cells; also called EPRS S990D; not shown: Strep tag

[4] = molecular target: T4, His-tagged EPRS (aa 1-168; GST-like domain alone), purified from E. coli (Homo sapiens (Human), UniProt P07814 1-168); experiment: in vitro His-tag (Ni-NTA) precipitation with purified proteins
T4 construct: not shown: hexahistidine tag
T4 sequence: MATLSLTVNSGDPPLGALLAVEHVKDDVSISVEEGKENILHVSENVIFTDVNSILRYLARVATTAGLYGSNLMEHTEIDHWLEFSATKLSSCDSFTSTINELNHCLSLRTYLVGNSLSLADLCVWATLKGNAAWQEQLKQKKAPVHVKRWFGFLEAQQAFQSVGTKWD

[5] = molecular target: T5, His-tagged EPRS (aa 1-196), purified from E. coli (Homo sapiens (Human), UniProt P07814 1-196); experiment: in vitro His-tag (Ni-NTA) precipitation with purified proteins, Coomassie
T5 construct: also called GST and L1 regions of EPRS; not shown: hexahistidine tag
T5 sequence: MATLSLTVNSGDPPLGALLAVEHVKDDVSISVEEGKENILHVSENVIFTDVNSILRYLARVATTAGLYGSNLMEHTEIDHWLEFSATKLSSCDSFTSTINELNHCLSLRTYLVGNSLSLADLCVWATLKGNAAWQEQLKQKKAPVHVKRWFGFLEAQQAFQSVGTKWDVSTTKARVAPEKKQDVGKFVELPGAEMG

[6] = molecular target: T1, Strep-EPRS (Strep-tagged full-length …); experiment: Strep precipitation of 293T lysates expressing Strep-EPRS and forms of GST-PCBP2, anti-GST immunoblot
[7] = molecular target: T2, EPRS, endogenous protein of U937 cells; experiment: endogenous co-IP with anti-EPRS antibody, PR8-infected U937 cells
[8] = molecular target: T6, MAVS-FLAG (mitochondrial antiviral-signaling protein expressed in 293T cells) (UniProt Q7Z434 1-540); experiment: anti-FLAG co-IP of 293T lysates expressing MAVS and forms of GST-PCBP2, anti-GST immunoblot
T6 construct: also called exogenous MAVS; not shown: FLAG tag
T6 sequence (Q7Z434 whole entry): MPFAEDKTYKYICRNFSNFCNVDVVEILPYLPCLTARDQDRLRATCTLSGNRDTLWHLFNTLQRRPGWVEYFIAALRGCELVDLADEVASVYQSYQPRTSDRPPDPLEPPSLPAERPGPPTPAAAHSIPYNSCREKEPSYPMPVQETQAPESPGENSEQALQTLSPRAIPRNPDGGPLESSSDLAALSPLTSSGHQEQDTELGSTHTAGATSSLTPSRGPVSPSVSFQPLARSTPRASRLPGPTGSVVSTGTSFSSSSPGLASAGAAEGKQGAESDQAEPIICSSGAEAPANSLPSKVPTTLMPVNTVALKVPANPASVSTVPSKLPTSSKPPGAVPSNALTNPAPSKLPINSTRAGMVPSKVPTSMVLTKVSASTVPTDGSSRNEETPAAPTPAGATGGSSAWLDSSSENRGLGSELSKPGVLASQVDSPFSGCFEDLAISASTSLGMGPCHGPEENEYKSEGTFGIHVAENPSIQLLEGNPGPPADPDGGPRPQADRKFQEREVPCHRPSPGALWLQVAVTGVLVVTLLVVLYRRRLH

[9] = molecular target: T7, MAVS, endogenous protein of RAW264.7 cells (UniProt Q8VCF0 1-503); experiment: endogenous immunoprecipitation with anti-PCBP2 antibody, PR8-infected RAW264.7 cells
T7 sequence (looked up): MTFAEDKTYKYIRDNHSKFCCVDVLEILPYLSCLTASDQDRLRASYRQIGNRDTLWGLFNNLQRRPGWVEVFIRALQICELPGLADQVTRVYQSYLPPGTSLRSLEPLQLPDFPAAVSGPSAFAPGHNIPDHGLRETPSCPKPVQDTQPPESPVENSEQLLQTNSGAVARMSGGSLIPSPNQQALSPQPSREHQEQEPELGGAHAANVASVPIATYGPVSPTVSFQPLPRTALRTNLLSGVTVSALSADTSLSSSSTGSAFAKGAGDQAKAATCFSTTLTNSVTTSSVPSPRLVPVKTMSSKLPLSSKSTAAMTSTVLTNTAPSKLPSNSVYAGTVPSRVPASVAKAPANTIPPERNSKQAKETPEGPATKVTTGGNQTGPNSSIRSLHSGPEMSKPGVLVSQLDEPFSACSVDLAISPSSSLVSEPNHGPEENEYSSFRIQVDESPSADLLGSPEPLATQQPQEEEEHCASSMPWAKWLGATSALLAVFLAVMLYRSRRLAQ

[10] = molecular target: T8, EPRS, endogenous protein of RAW264.7 cells (UniProt Q8CGC7 1-1512, phospho-Ser990 induced by PR8 infection); experiment: as above
T8 construct: Endogenous protein in cell lysates; The mouse origin is inferred from the cell line
T8 sequence (Q8CGC7 whole entry): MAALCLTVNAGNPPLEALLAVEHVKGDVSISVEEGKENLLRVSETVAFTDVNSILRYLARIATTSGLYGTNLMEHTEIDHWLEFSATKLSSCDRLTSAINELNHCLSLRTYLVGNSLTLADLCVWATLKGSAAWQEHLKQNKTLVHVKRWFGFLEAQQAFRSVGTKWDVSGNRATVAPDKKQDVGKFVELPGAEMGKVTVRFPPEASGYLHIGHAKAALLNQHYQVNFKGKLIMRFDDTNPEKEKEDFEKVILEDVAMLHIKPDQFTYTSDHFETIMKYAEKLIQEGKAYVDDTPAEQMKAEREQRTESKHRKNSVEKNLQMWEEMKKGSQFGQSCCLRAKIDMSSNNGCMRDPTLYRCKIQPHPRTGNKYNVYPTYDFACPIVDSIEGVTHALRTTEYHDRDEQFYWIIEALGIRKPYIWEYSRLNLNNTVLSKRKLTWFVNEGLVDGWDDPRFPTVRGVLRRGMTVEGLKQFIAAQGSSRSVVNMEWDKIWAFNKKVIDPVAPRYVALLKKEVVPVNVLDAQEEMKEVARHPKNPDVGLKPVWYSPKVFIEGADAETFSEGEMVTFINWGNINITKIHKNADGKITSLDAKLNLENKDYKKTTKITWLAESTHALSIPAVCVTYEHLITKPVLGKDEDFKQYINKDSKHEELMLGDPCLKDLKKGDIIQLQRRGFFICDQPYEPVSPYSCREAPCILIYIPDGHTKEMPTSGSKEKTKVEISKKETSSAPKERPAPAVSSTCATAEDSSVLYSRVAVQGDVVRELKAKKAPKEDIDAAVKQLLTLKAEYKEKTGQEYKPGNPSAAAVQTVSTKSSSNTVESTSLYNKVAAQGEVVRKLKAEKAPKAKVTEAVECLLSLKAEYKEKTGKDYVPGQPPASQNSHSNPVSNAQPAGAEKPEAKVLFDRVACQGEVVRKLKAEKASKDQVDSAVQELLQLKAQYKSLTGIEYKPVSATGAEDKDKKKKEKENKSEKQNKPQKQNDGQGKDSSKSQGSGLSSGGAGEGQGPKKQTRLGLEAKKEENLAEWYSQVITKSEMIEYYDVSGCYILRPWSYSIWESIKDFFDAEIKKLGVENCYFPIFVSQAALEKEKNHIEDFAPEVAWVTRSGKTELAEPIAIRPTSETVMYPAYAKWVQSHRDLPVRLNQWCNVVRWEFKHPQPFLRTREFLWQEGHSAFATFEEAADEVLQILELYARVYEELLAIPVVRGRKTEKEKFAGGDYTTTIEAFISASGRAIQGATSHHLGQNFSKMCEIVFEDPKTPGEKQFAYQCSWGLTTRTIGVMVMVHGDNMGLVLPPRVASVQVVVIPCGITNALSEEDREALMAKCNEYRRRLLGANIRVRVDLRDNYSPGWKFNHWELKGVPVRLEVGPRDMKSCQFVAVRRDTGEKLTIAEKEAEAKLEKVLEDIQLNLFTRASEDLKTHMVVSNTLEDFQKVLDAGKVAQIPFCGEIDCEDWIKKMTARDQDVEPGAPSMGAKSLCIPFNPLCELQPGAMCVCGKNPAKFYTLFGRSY

B1: GAPDH (glyceraldehyde-3-phosphate dehydrogenase), endogenous protein of human cells (U937, 293T) (enzyme)
chain: not shown
B1: no binding [1]; no binding [2].

B2: MRS (methionyl-tRNA synthetase), endogenous protein of 293T cells (enzyme, UniProt P56192 1-900, looked up)
chain: MRLFVSDGVPGCLPVLAAAGRARGRAEVLISTVGPEDCVVPFLTRPKVPVLQLDSGNYLFSTSAICRYFFLLSGWEQDDLTNQWLEWEATELQPALSAALYYLVVQGKKGEDVLGSVRRALTHIDHSLSRQNCPFLAGETESLADIVLWGALYPLLQDPAYLPEELSALHSWFQTLSTQEPCQRAAETVLKQQGVLALRPYLQKQPQPSPAEGRAVTNEPEEEELATLSEEEIAMAVTAWEKGLESLPPLRPQQNPVLPVAGERNVLITSALPYVNNVPHLGNIIGCVLSADVFARYSRLRQWNTLYLCGTDEYGTATETKALEEGLTPQEICDKYHIIHADIYRWFNISFDIFGRTTTPQQTKITQDIFQQLLKRGFVLQDTVEQLRCEHCARFLADRFVEGVCPFCGYEEARGDQCDKCGKLINAVELKKPQCKVCRSCPVVQSSQHLFLDLPKLEKRLEEWLGRTLPGSDWTPNAQFITRSWLRDGLKPRCITRDLKWGTPVPLEGFEDKVFYVWFDATIGYLSITANYTDQWERWWKNPEQVDLYQFMAKDNVPFHSLVFPCSALGAEDNYTLVSHLIATEYLNYEDGKFSKSRGVGVFGDMAQDTGIPADIWRFYLLYIRPEGQDSAFSWTDLLLKNNSELLNNLGNFINRAGMFVSKFFGGYVPEMVLTPDDQRLLAHVTLELQHYHQLLEKVRIRDALRSILTISRHGNQYIQVNEPWKRIKGSEADRQRAGTVTGLAVNIAALLSVMLQPYMPTVSATIQAQLQLPPPACSILLTNFLCTLPAGHQIGTVSPLFQKLENDQIESLRQRFGGGQAKTSPKPAVVETVTTAKPQQIQALMDEVTKQGNIVRELKAQKADKNEVAAEVAKLLDLKKQLAVAEGKPPEAPKGKKKK
notes: 293T cells are a human line
B2: no binding [3].

B3: GST-fused PCBP2 KH1 (aa 11-82), purified from E. coli (other, UniProt Q15366 11-82, looked up)
chain: NVTLTIRLLMHGKEVGSIIGKKGESVKKMREESGARINISEGNCPERIITLAGPTNAIFKAFAMIIDKLEED
notes: range 11-82; also called PCBP2 KH1 (aa 11-82) domain; not shown: GST
B3: no binding [4]; binds [5].

B4: GST-PCBP2 linker region, expressed in 293T cells (other, UniProt Q15366 168-279, looked up)
chain: ETLSQSPPKGVTIPYRPKPSSSPVIFAGGQDRYSTGSDSASFPHTTPSMCLNPDLEGPPLEAYTIQGQYAIPQPDLTKLHQLAMQQSHFPMTHGNTGFSGIESSSPEVKGYW
notes: domain: linker region; not shown: GST tag
B4: no binding [6].

B5: PCBP2, endogenous protein of human cells (293T, U937) (other, UniProt Q15366 1-365, looked up)
chain: MDTGVIEGGLNVTLTIRLLMHGKEVGSIIGKKGESVKKMREESGARINISEGNCPERIITLAGPTNAIFKAFAMIIDKLEEDISSSMTNSTAASRPPVTLRLVVPASQCGSLIGKGGCKIKEIRESTGAQVQVAGDMLPNSTERAITIAGIPQSIIECVKQICVVMLETLSQSPPKGVTIPYRPKPSSSPVIFAGGQDRYSTGSDSASFPHTTPSMCLNPDLEGPPLEAYTIQGQYAIPQPDLTKLHQLAMQQSHFPMTHGNTGFSGIESSSPEVKGYWGLDASAQTTSHELTIPNDLIGCIIGRQGAKINEIRQMSGAQIKIANPVEGSTDRQVTITGSAASISLAQYLINVRLSSETGGMGSS
notes: also called PBP2
B5: binds [7].

B6: GST-PCBP2 N-terminal KH1 domain (aa 1-81), expressed in 293T cells (other, UniProt Q15366 1-81, looked up)
chain: MDTGVIEGGLNVTLTIRLLMHGKEVGSIIGKKGESVKKMREESGARINISEGNCPERIITLAGPTNAIFKAFAMIIDKLEE
notes: range 1-81; also called PCBP2 KH1; not shown: GST tag
B6: binds [8]; binds [6].

B7: PCBP2, endogenous protein of RAW264.7 cells (other, UniProt Q61990 1-362, looked up)
chain: MDTGVIEGGLNVTLTIRLLMHGKEVGSIIGKKGESVKKMREESGARINISEGNCPERIITLAGPTNAIFKAFAMIIDKLEEDISSSMTNSTAASRPPVTLRLVVPASQCGSLIGKGGCKIKEIRESTGAQVQVAGDMLPNSTERAITIAGIPQSIIECVKQICVVMLESPPKGVTIPYRPKPSSSPVIFAGGQDRYSTGSDSASFPHTTPSMCLNPDLEGPPLEAYTIQGQYAIPQPDLTKLHQLAMQQSHFPMTHGNTGFSGIESSSPEVKGYWAGLDASAQTTSHELTIPNDLIGCIIGRQGAKINEIRQMSGAQIKIANPVEGSTDRQVTITGSAASISLAQYLINVRLSSETGGMGSS
notes: also called PBP2
B7: binds [9]; binds [10].

B8: AIMP3 (ARS-interacting multifunctional protein 3), endogenous protein of human cells (U937, 293T) (other, UniProt O43324 2-174, looked up)
chain: AAAAELSLLEKSLGLSKGNKYSAQGERQIPVLQTNNGPSLTGLTTIAAHLVKQANKEYLLGSTAEEKAIVQQWLEYRVTQVDGHSSKNDIHTLLKDLNSYLEDKVYLTGYNFTLADILLYYGLHRFIVDLTVQEKEKYLNVSRWFCHIQHYPGIRQHLSSVVFIKNRLYTNSH
B8: no binding [3].
